In patent US20240400696A1:

These binders were tested against CD3 (assay: Octet, crude lysate).
CD3, sequence (P07766 23-126): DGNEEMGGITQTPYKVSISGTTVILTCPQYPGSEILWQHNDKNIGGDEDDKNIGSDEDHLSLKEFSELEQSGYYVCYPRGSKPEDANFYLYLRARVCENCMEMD

Binder | Kd [nM]
AC3402 (bispecific antibody, V domains shown) VH: EVQLLESGGGIVQPGGSLKLSCAASGFTFNTYAMNWVRQAPGKGLEWVARIRSKPNNYATYYADSVKDRFTISRDDSKNTVYLQMNNLKTEDTAVYYCVRHENFGNSYVSWFAHWGQGTLVTVSS VL: ELVVTQEPSLTVSPGGTVTLTCRSSNGAVTSSNYANWVQQKPGQAPRGLIGGTNKRAPGTPARFSGSLLGGKAALTLSGVQPEDEAVYYCALWYPNLWVFGGGTKLTVL | 33.1
AC3404 (bispecific antibody, V domains shown) VH: EVQLLESGGGIVQPGGSLKLSCAASGFTFNTYAMNWVRQAPGKGLEWVARIRSKWNNYATYYADSVKDRFTISRDDSKNTVYLQMNNLKTEDTAVYYCVRHENFGNSYVSWFAHWGQGTLVTVSS VL: ELVVTQEPSLTVSPGGTVTLTCRSSNGAVTSSNYANWVQQKPGQAPRGLIGGTNKRAPGTPARFSGSLLGGKAALTLSGVQPEDEAVYYCALWYPNLWVFGGGTKLTVL | 10.5
AC3414 (bispecific antibody, V domains shown) VH: EVQLLESGGGIVQPGGSLKLSCAASGFTFNTYAMNWVRQAPGKGLEWVARIRSKYNNYATDYADSVKDRFTISRDDSKNTVYLQMNNLKTEDTAVYYCVRHENFGNSYVSWFAHWGQGTLVTVSS VL: ELVVTQEPSLTVSPGGTVTLTCRSSNGAVTSSNYANWVQQKPGQAPRGLIGGTNKRAPGTPARFSGSLLGGKAALTLSGVQPEDEAVYYCALWYPNLWVFGGGTKLTVL | 939
AC3403 (bispecific antibody, V domains shown) VH: EVQLLESGGGIVQPGGSLKLSCAASGFTFNTYAMNWVRQAPGKGLEWVARIRSKTNNYATYYADSVKDRFTISRDDSKNTVYLQMNNLKTEDTAVYYCVRHENFGNSYVSWFAHWGQGTLVTVSS VL: ELVVTQEPSLTVSPGGTVTLTCRSSNGAVTSSNYANWVQQKPGQAPRGLIGGTNKRAPGTPARFSGSLLGGKAALTLSGVQPEDEAVYYCALWYPNLWVFGGGTKLTVL | 11.1
AC3418 (bispecific antibody, V domains shown) VH: EVQLLESGGGIVQPGGSLKLSCAASGFTFNTYAMNWVRQAPGKGLEWVARIRSKYNNYATYEADSVKDRFTISRDDSKNTVYLQMNNLKTEDTAVYYCVRHENFGNSYVSWFAHWGQGTLVTVSS VL: ELVVTQEPSLTVSPGGTVTLTCRSSNGAVTSSNYANWVQQKPGQAPRGLIGGTNKRAPGTPARFSGSLLGGKAALTLSGVQPEDEAVYYCALWYPNLWVFGGGTKLTVL | 9.7
AC3416 (bispecific antibody, V domains shown) VH: EVQLLESGGGIVQPGGSLKLSCAASGFTFNTYAMNWVRQAPGKGLEWVARIRSKYNNYATTYADSVKDRFTISRDDSKNTVYLQMNNLKTEDTAVYYCVRHENFGNSYVSWFAHWGQGTLVTVSS VL: ELVVTQEPSLTVSPGGTVTLTCRSSNGAVTSSNYANWVQQKPGQAPRGLIGGTNKRAPGTPARFSGSLLGGKAALTLSGVQPEDEAVYYCALWYPNLWVFGGGTKLTVL | 17.9
AC3409 (bispecific antibody, V domains shown) VH: EVQLLESGGGIVQPGGSLKLSCAASGFTFNTYAMNWVRQAPGKGLEWVARIRSKYNNGATYYADSVKDRFTISRDDSKNTVYLQMNNLKTEDTAVYYCVRHENFGNSYVSWFAHWGQGTLVTVSS VL: ELVVTQEPSLTVSPGGTVTLTCRSSNGAVTSSNYANWVQQKPGQAPRGLIGGTNKRAPGTPARFSGSLLGGKAALTLSGVQPEDEAVYYCALWYPNLWVFGGGTKLTVL | 11.3
AC3415 (bispecific antibody, V domains shown) VH: EVQLLESGGGIVQPGGSLKLSCAASGFTFNTYAMNWVRQAPGKGLEWVARIRSKYNNYATEYADSVKDRFTISRDDSKNTVYLQMNNLKTEDTAVYYCVRHENFGNSYVSWFAHWGQGTLVTVSS VL: ELVVTQEPSLTVSPGGTVTLTCRSSNGAVTSSNYANWVQQKPGQAPRGLIGGTNKRAPGTPARFSGSLLGGKAALTLSGVQPEDEAVYYCALWYPNLWVFGGGTKLTVL | 183
AC3417 (bispecific antibody, V domains shown) VH: EVQLLESGGGIVQPGGSLKLSCAASGFTFNTYAMNWVRQAPGKGLEWVARIRSKYNNYATYDADSVKDRFTISRDDSKNTVYLQMNNLKTEDTAVYYCVRHENFGNSYVSWFAHWGQGTLVTVSS VL: ELVVTQEPSLTVSPGGTVTLTCRSSNGAVTSSNYANWVQQKPGQAPRGLIGGTNKRAPGTPARFSGSLLGGKAALTLSGVQPEDEAVYYCALWYPNLWVFGGGTKLTVL | 63.2
AC3406 (bispecific antibody, V domains shown) VH: EVQLLESGGGIVQPGGSLKLSCAASGFTFNTYAMNWVRQAPGKGLEWVARIRSKYENYATYYADSVKDRFTISRDDSKNTVYLQMNNLKTEDTAVYYCVRHENFGNSYVSWFAHWGQGTLVTVSS VL: ELVVTQEPSLTVSPGGTVTLTCRSSNGAVTSSNYANWVQQKPGQAPRGLIGGTNKRAPGTPARFSGSLLGGKAALTLSGVQPEDEAVYYCALWYPNLWVFGGGTKLTVL | 575
AC3420 (bispecific antibody, V domains shown) VH: EVQLLESGGGIVQPGGSLKLSCAASGFTFNTYAMNWVRQAPGKGLEWVARIRSKYNNYATYGADSVKDRFTISRDDSKNTVYLQMNNLKTEDTAVYYCVRHENFGNSYVSWFAHWGQGTLVTVSS VL: ELVVTQEPSLTVSPGGTVTLTCRSSNGAVTSSNYANWVQQKPGQAPRGLIGGTNKRAPGTPARFSGSLLGGKAALTLSGVQPEDEAVYYCALWYPNLWVFGGGTKLTVL | 8.3
AC3408 (bispecific antibody, V domains shown) VH: EVQLLESGGGIVQPGGSLKLSCAASGFTFNTYAMNWVRQAPGKGLEWVARIRSKYNEYATYYADSVKDRFTISRDDSKNTVYLQMNNLKTEDTAVYYCVRHENFGNSYVSWFAHWGQGTLVTVSS VL: ELVVTQEPSLTVSPGGTVTLTCRSSNGAVTSSNYANWVQQKPGQAPRGLIGGTNKRAPGTPARFSGSLLGGKAALTLSGVQPEDEAVYYCALWYPNLWVFGGGTKLTVL | 8.3
AC3413 (bispecific antibody, V domains shown) VH: EVQLLESGGGIVQPGGSLKLSCAASGFTFNTYAMNWVRQAPGKGLEWVARIRSKYNNYTTYYADSVKDRFTISRDDSKNTVYLQMNNLKTEDTAVYYCVRHENFGNSYVSWFAHWGQGTLVTVSS VL: ELVVTQEPSLTVSPGGTVTLTCRSSNGAVTSSNYANWVQQKPGQAPRGLIGGTNKRAPGTPARFSGSLLGGKAALTLSGVQPEDEAVYYCALWYPNLWVFGGGTKLTVL | 10.7
AC3421 (bispecific antibody, V domains shown) VH: EVQLLESGGGIVQPGGSLKLSCAASGFTFNTYAMNWVRQAPGKGLEWVARIRSKYNNYATYWADSVKDRFTISRDDSKNTVYLQMNNLKTEDTAVYYCVRHENFGNSYVSWFAHWGQGTLVTVSS VL: ELVVTQEPSLTVSPGGTVTLTCRSSNGAVTSSNYANWVQQKPGQAPRGLIGGTNKRAPGTPARFSGSLLGGKAALTLSGVQPEDEAVYYCALWYPNLWVFGGGTKLTVL | 37.2

Further lines, results first:

Kd [nM] | Binder
8.2 | AC3423 (bispecific antibody, V domains shown) VH: EVQLLESGGGIVQPGGSLKLSCAASGFTFNTYAMNWVRQAPGKGLEWVARIRSKYNNYATYYPDSVKDRFTISRDDSKNTVYLQMNNLKTEDTAVYYCVRHENFGNSYVSWFAHWGQGTLVTVSS VL: ELVVTQEPSLTVSPGGTVTLTCRSSNGAVTSSNYANWVQQKPGQAPRGLIGGTNKRAPGTPARFSGSLLGGKAALTLSGVQPEDEAVYYCALWYPNLWVFGGGTKLTVL
6.1 | AC3410 (bispecific antibody, V domains shown) VH: EVQLLESGGGIVQPGGSLKLSCAASGFTFNTYAMNWVRQAPGKGLEWVARIRSKYNNFATYYADSVKDRFTISRDDSKNTVYLQMNNLKTEDTAVYYCVRHENFGNSYVSWFAHWGQGTLVTVSS VL: ELVVTQEPSLTVSPGGTVTLTCRSSNGAVTSSNYANWVQQKPGQAPRGLIGGTNKRAPGTPARFSGSLLGGKAALTLSGVQPEDEAVYYCALWYPNLWVFGGGTKLTVL
7.8 | AC3411 (bispecific antibody, V domains shown) VH: EVQLLESGGGIVQPGGSLKLSCAASGFTFNTYAMNWVRQAPGKGLEWVARIRSKYNNWATYYADSVKDRFTISRDDSKNTVYLQMNNLKTEDTAVYYCVRHENFGNSYVSWFAHWGQGTLVTVSS VL: ELVVTQEPSLTVSPGGTVTLTCRSSNGAVTSSNYANWVQQKPGQAPRGLIGGTNKRAPGTPARFSGSLLGGKAALTLSGVQPEDEAVYYCALWYPNLWVFGGGTKLTVL
8 | AC3422 (bispecific antibody, V domains shown) VH: EVQLLESGGGIVQPGGSLKLSCAASGFTFNTYAMNWVRQAPGKGLEWVARIRSKYNNYATYYKDSVKDRFTISRDDSKNTVYLQMNNLKTEDTAVYYCVRHENFGNSYVSWFAHWGQGTLVTVSS VL: ELVVTQEPSLTVSPGGTVTLTCRSSNGAVTSSNYANWVQQKPGQAPRGLIGGTNKRAPGTPARFSGSLLGGKAALTLSGVQPEDEAVYYCALWYPNLWVFGGGTKLTVL
5.4 | AC3424 (bispecific antibody, V domains shown) VH: EVQLLESGGGIVQPGGSLKLSCAASGFTFNTYAMNWVRQAPGKGLEWVARIRSKYNNYATYYADSVKGRFTISRDDSKNTVYLQMNNLKTEDTAVYYCVRHENFGNSYVSWFAHWGQGTLVTVSS VL: ELVVTQEPSLTVSPGGTVTLTCRSSNGAVTSSNYANWVQQKPGQAPRGLIGGTNKRAPGTPARFSGSLLGGKAALTLSGVQPEDEAVYYCALWYPNLWVFGGGTKLTVL
7.4 | AC3407 (bispecific antibody, V domains shown) VH: EVQLLESGGGIVQPGGSLKLSCAASGFTFNTYAMNWVRQAPGKGLEWVARIRSKYNDYATYYADSVKDRFTISRDDSKNTVYLQMNNLKTEDTAVYYCVRHENFGNSYVSWFAHWGQGTLVTVSS VL: ELVVTQEPSLTVSPGGTVTLTCRSSNGAVTSSNYANWVQQKPGQAPRGLIGGTNKRAPGTPARFSGSLLGGKAALTLSGVQPEDEAVYYCALWYPNLWVFGGGTKLTVL
8.2 | AC3412 (bispecific antibody, V domains shown) VH: EVQLLESGGGIVQPGGSLKLSCAASGFTFNTYAMNWVRQAPGKGLEWVARIRSKYNNYGTYYADSVKDRFTISRDDSKNTVYLQMNNLKTEDTAVYYCVRHENFGNSYVSWFAHWGQGTLVTVSS VL: ELVVTQEPSLTVSPGGTVTLTCRSSNGAVTSSNYANWVQQKPGQAPRGLIGGTNKRAPGTPARFSGSLLGGKAALTLSGVQPEDEAVYYCALWYPNLWVFGGGTKLTVL
7.2 | AC3419 (bispecific antibody, V domains shown) VH: EVQLLESGGGIVQPGGSLKLSCAASGFTFNTYAMNWVRQAPGKGLEWVARIRSKYNNYATYQADSVKDRFTISRDDSKNTVYLQMNNLKTEDTAVYYCVRHENFGNSYVSWFAHWGQGTLVTVSS VL: ELVVTQEPSLTVSPGGTVTLTCRSSNGAVTSSNYANWVQQKPGQAPRGLIGGTNKRAPGTPARFSGSLLGGKAALTLSGVQPEDEAVYYCALWYPNLWVFGGGTKLTVL
